Residue numbers refer to the chain shown, from its start.
B1: Protein #2 (SEQ ID NO: 2 with a His-tag (SEQ ID NO: 1) fused to its N-terminus) (designed binder)
chain: MRGSHHHHHHGSDLGKKLLEAARAGQDDEVRELLKAGADVNAKDYFSHTPLHLAARNGHLKIVEVLLKAGADVNAKDFAGKTPLHLAANEGHLEIVEVLLKAGADVNAQDIFGKTPADIAADAGHEDIAEVLQKAA
B2: Protein #4 (SEQ ID NO: 4 with a His-tag (SEQ ID NO: 1) fused to its N-terminus) (designed binder)
chain: B1 chain with N89D, E90A
B3: Protein #3 (SEQ ID NO: 3 with a His-tag (SEQ ID NO: 1) fused to its N-terminus) (designed binder)
chain: B1 chain with N89A, E90D

What follows are binders tested against T1, human serum albumin (human, UniProt P02768 25-609) (assay: ELISA, serum albumin immobilized on plate, in PBST-C).
T1 sequence (P02768 25-609 limits assumed): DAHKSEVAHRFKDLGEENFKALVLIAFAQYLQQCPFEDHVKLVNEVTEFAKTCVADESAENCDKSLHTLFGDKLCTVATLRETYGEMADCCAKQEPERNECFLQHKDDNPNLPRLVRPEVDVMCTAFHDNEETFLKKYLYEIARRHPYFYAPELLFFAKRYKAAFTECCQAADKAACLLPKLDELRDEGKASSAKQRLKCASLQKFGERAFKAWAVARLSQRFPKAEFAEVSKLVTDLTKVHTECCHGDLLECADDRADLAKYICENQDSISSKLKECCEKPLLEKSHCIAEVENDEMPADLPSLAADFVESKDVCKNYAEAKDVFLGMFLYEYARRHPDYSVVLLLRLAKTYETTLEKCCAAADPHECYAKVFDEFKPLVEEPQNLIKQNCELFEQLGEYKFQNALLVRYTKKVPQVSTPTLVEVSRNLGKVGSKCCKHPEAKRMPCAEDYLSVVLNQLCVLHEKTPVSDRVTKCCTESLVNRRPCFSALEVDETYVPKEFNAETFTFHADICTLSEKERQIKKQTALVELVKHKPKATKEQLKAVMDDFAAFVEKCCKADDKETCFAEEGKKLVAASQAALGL
Experimental: (§1) Samples of proteins of Example 2 were subjected to ELISA serum albumin cross-reactivity analyses as described in WO2016156596. 100 μl of 20 nM serum albumin in PBS per well were immobilized in a Maxisorp plate (Nunc, Denmark) overnight at 4° C. After washing 5 times with 300 μl PBST (PBS supplemented with 0.1% Tween 20), the wells were blocked with 300 μl PBST-C(PBST supplemented with 0.25% casein) for 2 h at room temperature with shaking at 450 rpm on a Titramax 1000 shaker (Heidolph, Germany). After washing 5 times as described above, 100 μl/well or 50 μl/well proteins #2, #3, or #4 (concentrations ranging from 100 nM to 0.01 pM for each protein) in PBST-C were applied and incubated for 2 h at room temperature with shaking at 450 rpm. After washing 5 times as described above, binding of the proteins was detected using 100 μl rabbit anti-designed ankyrin repeat domain monoclonal antibody in PBST-C for 1 h at room temperature with shaking at 450 rpm. After washing 5 times as described above, bound anti-designed ankyrin repeat domain antibody was detected using 100 μl/well goat anti-rabbit IgG-HRP conjugate in PBST-C for 1 h at room temperature with shaking at 450 rpm. After washing 5 times as described above, the ELISA was then developed using 100 μl BM soluble blue POD substrate (Roche, Switzerland), diluted 1:4 in water. The reaction was stopped after 5 min using 100 μl 1 M H2504. The OD (OD 450 nm-OD 620 nm) was then recorded. EC 50 values were determined using Graph Pad Prism (Table 3). […] The measured EC₅₀ values for cynomolgus monkey serum albumin binding are below 20 nM for proteins #2, #3, and #4.

Binder	EC50 [nM]
B1	< 1
B2	< 1
B3	< 1

The binders below were run against T2, mouse serum albumin (mouse, UniProt P07724 25-608) in the same assay as above.
Experimental: as §1

Binder	EC50 [nM]
B1	< 30
B2	< 30
B3	< 30

These binders were tested against T3, cynomolgus monkey serum albumin (cynomolgus monkey (Macaca fascicularis), UniProt A2V9Z4 25-608) in the same assay as above.
T3 sequence (A2V9Z4 25-608 limits assumed): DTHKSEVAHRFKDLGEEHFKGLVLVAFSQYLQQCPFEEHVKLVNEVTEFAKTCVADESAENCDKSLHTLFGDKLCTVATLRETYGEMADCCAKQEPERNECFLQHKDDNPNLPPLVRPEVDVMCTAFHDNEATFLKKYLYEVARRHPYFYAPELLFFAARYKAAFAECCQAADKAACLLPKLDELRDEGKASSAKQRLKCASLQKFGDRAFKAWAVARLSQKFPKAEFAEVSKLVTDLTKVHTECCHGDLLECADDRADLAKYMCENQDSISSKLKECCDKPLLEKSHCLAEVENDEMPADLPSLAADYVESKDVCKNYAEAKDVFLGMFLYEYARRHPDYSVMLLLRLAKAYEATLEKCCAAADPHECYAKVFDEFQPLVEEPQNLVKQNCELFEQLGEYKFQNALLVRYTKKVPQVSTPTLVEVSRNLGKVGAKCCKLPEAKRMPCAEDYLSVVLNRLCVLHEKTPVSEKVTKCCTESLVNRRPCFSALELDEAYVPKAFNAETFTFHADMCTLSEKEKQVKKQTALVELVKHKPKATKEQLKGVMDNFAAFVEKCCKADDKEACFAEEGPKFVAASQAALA
Experimental: as §1

Binder	EC50 [nM]
B1	< 20
B2	< 20
B3	< 20

Biological target: T1, human serum albumin
Assay: as above
Remark: another data set of the same source
Experimental: as §1

Binder	EC50 [nM]
B1	0.32
B2	0.84
B3	0.64

Biological target: T2, mouse serum albumin
Assay: as above
Remark: another data set of the same source
Experimental: as §1

Binder	EC50 [nM]
B1	9.6
B2	24
B3	14.7

Biological target: T3, cynomolgus monkey serum albumin
Assay: as above
Remark: another data set of the same source
Experimental: as §1

Binder	EC50 [nM]
B1	2.8
B2	13.1
B3	6.8

The binders below were run against T1, human serum albumin (assay: SPR, ProteOn system (BioRad), in PBS).
Experimental: Affinity of proteins of Example 2 to human serum albumin were determined by SPR measurements using a ProteOn system (BioRad) in PBS according to standard procedures known to the person skilled in the art.

Binder	Kd [nM]
B1	31.1
B2	34.4
B3	35.5

— patent US20240124535A1 (Molecular Partners, published 2024)
